Series [1] has as its target T1, PTEN (endogenous, human tissue sections) (human, UniProt P60484 1-403). The experiment in a line: histochemistry (PS2.M peroxidase, DAB); hemin, K+; endometrium and colon; same scoring as MAb 6H2 in 60 samples; Fixed tissue sections; 5 uM aptamer in TKT (25 mM Tris-HCl pH 8, 20 mM KCl, 200 mM NaCl, 0.05% Triton X-100, 0.1% DMSO), 100 uM hemin for DNAzyme constructs, BSA; 3 h at room temperature or overnight at 4 C (25 C overnight also stated). The note with it: protein: native; 5' PS2.M G-quadruplex; stem linker removed.

Series [2] has as its target T1, PTEN (endogenous, human tissue sections). The series is described as follows: histochemistry (avidin-biotin peroxidase); normal endometrium; TKT buffer; Fixed tissue sections; 5 uM aptamer in TKT (25 mM Tris-HCl pH 8, 20 mM KCl, 200 mM NaCl, 0.05% Triton X-100, 0.1% DMSO), 100 uM hemin for DNAzyme constructs, BSA; 3 h at room temperature or overnight at 4 C (25 C overnight also stated). The note with it: protein: native; label: 5' biotin; stem-loop; 13 nt reverse-complementary primer regions form the stem.

T1 sequence (P60484 whole entry): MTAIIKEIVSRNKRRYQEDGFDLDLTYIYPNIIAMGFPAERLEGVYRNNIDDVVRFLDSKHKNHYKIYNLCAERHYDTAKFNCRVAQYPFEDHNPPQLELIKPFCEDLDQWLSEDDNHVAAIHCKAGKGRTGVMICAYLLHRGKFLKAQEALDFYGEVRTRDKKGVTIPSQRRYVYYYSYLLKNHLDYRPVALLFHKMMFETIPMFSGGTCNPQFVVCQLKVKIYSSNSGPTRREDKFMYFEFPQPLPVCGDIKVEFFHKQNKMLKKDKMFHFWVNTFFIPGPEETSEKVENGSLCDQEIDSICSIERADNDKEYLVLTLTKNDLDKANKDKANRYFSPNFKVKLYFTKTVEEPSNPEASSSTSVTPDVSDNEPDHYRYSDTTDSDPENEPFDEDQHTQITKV

B1: Dual aptazyme PTENz7-70 (structured_DNA)
DNA: GTGGGTAGGGCGGGTTGGCGGTCATACCGCGCCTATCGAACTCGCCACTCGCGTGCAGCTCTGTGTAGGT
Turning to B1, in series [1], the binding result is on record as “binds”.

B2: PTENz7-87-biotin (structured_DNA)
DNA: CGGAATTCCGAGCGTGGGCGTGGTCATACCGCGCCTATCGAACTCGCCACTCGCGTGCAGCTCTGTGTAGGTACGCCCACGCTCGAG
Regarding B2, the binding result in series [2] was “binds”.
